Test results as given in PMC8420576 (The EMBO Journal, 2021).

Biological target: T1, SARS-CoV-2 RBD, B.1.427/B.1.429/Epsilon/Californian variant (L452R) (SARS-CoV-2, Epsilon/Californian …, L452R)
T1 construct: also called Epsilon/Californian RBD mutant; Californian L452R mutation
Test: BLI
Conditions: both partners purified

B1: VHH antibody Re5D06, labeled with two PEG11-biotins (VHH)
VHH: QVQLVESGGGLVQPGGSLRLSCAASGITLDYYAIGWFRQAPGKEREGVSRIRSSDGSTNYADSVKGRFTMSRDNAKNTVYLQMNSLKPEDTAVYYCAYGPLTKYGSSWYWPYEYDYWGQGTQVTVSS
notes: also called Re5D06 (immobilized on BLI sensors)
For B1, the Kd was about 0.4 nM.
